Measurements reported in patent US20060024793A1.

Each substance was assayed against thrombin (manufactured by Enzyme Research Laboratories) (assay: cell-based or functional assay).
Work on “ATIII DG44 peak (2) fraction (recombinant human antithrombin III produced by pKAN-ATIII AFDG44, CHO/DG44 cell) (from UniProt P01008 33-464)” yielded a Secondary rate constant (+hep), thrombin inhibition in the presence of heparin of 2e+07 M⁻¹ s⁻¹ and a Secondary rate constant (-hep), thrombin inhibition in the absence of heparin of 8600 M⁻¹ s⁻¹.
In the case of “Neuart (human plasma-derived antithrombin III preparation, manufactured by Mitsubishi Pharma Corporation) (from UniProt P01008 33-464)”, the Secondary rate constant (+hep), thrombin inhibition in the presence of heparin is reported as 2.3e+07 M⁻¹ s⁻¹ and the Secondary rate constant (-hep), thrombin inhibition in the absence of heparin is reported as 8200 M⁻¹ s⁻¹.
With “ATIII DG44 peak (1) fraction (recombinant human antithrombin III produced by pKAN-ATIII AFDG44, CHO/DG44 cell) (from UniProt P01008 33-464)” the Secondary rate constant (+hep), thrombin inhibition in the presence of heparin was 8.7e+06 M⁻¹ s⁻¹ and the Secondary rate constant (-hep), thrombin inhibition in the absence of heparin was 7700 M⁻¹ s⁻¹.
Substance “ATIII MS705 peak (3) fraction (recombinant human antithrombin III produced by pKAN-ATIII AFMS705, FUT8 gene-double-knockout CHO/DG44 cell) (from UniProt P01008 33-464)” has a Secondary rate constant (+hep), thrombin inhibition in the presence of heparin of 2.6e+07 M⁻¹ s⁻¹ and a Secondary rate constant (-hep), thrombin inhibition in the absence of heparin of 8800 M⁻¹ s⁻¹.
With “ATIII MS705 peak (2) fraction (recombinant human antithrombin III produced by pKAN-ATIII AFMS705, FUT8 gene-double-knockout CHO/DG44 cell) (from UniProt P01008 33-464)” the Secondary rate constant (+hep), thrombin inhibition in the presence of heparin was 2.5e+07 M⁻¹ s⁻¹.
